Reference: US20060062797A1 (RESEARCH FOUNDATION OF STATE UNIVERSITY OF NEW YORK AT …, published 2006)
Values belong to the binder of their own block, whether it stands above or below them. No end group written: not given here.

Tests used:
[1] = target: Aβ1-42 peptide (SEQ ID NO: 157) (Homo sapiens (Human), UniProt P05067 672-713); test: cell-based or functional assay
[2] = target: the molecule itself; test: 2D solid-state NMR (DARR) on fibrils, self-association

- thioflavin T fluorescence, inhibition of fibrillization at Aβ1-42:I1 molar ratio 1:20 [1]: 70%
Binder: RGTFEGKF-NH2 (not fully specified; printed as RGTFEGKF-NH2) [amyloid fibril inhibitor protein RGTFEGKF-NH2 (SEQ ID NO: 1)]

B1: truncated glycophorin A peptide GpA70-86 (SEQ ID NO: 158) (peptide)
peptide: EPEITLIIFGVMAGVIG
modifications: not fully specified
notes: 17-residue fragment of glycophorin A, residues 70-86, that forms fibrils; NMR samples were 13C-labelled at Gly79, Gly83 or the Met81 methyl; also called truncated GpA; glycophorin A transmembrane peptide fragment
- binding result [2]: binds
